This is an account of results in patent US20200255529A1 (PIONYR IMMUNOTHERAPEUTICS, published 2020).

For assay [1], the target named is hCD16 on NFAT-luciferase reporter Jurkat cells (Promega) (human, UniProt P08637 17-254). The assay can be described thus: cell-based or functional assay.
In assay [2] the target is T1, Chimeric cynomolgus TREM1-mIgG Fc (cynomolgus, UniProt A0A2K5VHG8 21-204).
T1 construct: not shown: mouse IgG Fc
T1 sequence: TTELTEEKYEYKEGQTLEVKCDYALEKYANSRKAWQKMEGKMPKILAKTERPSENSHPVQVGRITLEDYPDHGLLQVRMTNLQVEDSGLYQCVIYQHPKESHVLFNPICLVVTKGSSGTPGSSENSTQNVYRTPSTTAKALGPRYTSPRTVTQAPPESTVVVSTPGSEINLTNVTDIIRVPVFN
The assay can be described thus: SPR (Biacore T200), avid format: cynomolgus TREM1-mIgG Fc captured, antibody as analyte. Here is the method: All data were collected at 25° C. 10 mM HEPES pH 7.4, 150 mM NaCl, 3 mM EDTA, 0.05% (v/V) surfactant P20 was used as mobile buffer and for all dilution of mAbs. Anti-mouse Fc was immobilized on a CM4 biosensor chip (GE Healthcare) using amine coupling chemistry. Chimeric cynomolgus TREM1-mIgG Fc was captured on one flow cell and another flow cell (used as reference surface) was left blank. […] After each cycle, the surface was regenerated by injecting a glycine HCl buffer (10 mM, pH 2.0). BIAevaluation software was used to perform the kinetic evaluation. Kinetic evaluation was through generation of sensorgrams which were fitted with a 1:1 Langmuir binding model.

Assay [3] concerns the target T2, cynomolgus TREM1 on cells (cynomolgus, UniProt A0A2K5VHG8 21-233).
T2 construct: whole, on cells; Used for HEK293 cells over-expressing cynomolgus TREM1 and for primary cynomolgus monocytes; also called cynoTREM1; Cyno TREM1 cells
T2 sequence: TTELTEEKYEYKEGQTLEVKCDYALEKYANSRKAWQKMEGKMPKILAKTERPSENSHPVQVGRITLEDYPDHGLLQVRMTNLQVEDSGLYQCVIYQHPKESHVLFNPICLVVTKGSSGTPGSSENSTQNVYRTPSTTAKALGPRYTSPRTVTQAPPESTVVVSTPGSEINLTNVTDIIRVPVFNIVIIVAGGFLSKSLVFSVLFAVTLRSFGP
The assay can be described thus: flow cytometry on HEK293 cells over-expressing cynomolgus TREM1; cells overexpressing cynomolgus TREM1; EC50 about 12-fold weaker than parent (4.61 nM); background binding Y. (In general: Flow cytometry measures light scatter and fluorescence of single cells or particles in a stream.)

hCD16 on NFAT-luciferase reporter Jurkat cells (Promega), sequence (P08637 17-254 F176V): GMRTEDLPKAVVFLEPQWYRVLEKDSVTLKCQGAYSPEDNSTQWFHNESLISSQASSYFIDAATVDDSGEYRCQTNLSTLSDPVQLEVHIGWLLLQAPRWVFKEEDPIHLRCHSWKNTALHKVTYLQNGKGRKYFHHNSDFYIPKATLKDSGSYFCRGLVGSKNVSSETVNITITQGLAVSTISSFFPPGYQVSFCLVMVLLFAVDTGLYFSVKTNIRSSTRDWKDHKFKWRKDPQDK

B1: PI-4026-5-M100E (fucosylated) (antibody, human IgG1, kappa)
heavy: not shown
light: DIQLTQSPSSLSASVGDRVTITCSASSSVSYMHWYQQKPGKAPKLLLYTTSNLASGVPSRFSGSGSGTDYTLTISSLQPEDFATYYCHQWSGYPTFGQGTKLEIKRTVAAPSVFIFPPSDEQLKSGTASVVCLLNNFYPREAKVQWKVDNALQSGNSQESVTEQDSKDSTYSLSSTLTLSKADYEKHKVYACEVTHQGLSSPVTKSFNRGEC
B1: the “hCD16 ADCC assay EC50” value in assay [1] worked out at 3.18 nM. In addition, in assay [2], binding was characterised by a dissociation constant (Kd) of 6.19 nM. Moreover, the EC50 in assay [3] was determined as 58 nM.

As a reminder, the Kd is a measure of binding affinity in units of concentration. A high value points to lower affinity. In general, EC50 refers to the concentration at which the effect is half-maximal.
